Measured values taken from article PMC5154385 (ACS infectious diseases, 2015).

Experiments:
[1] = target: Eis_Mab2 (Mycobacteroides abscessus, UniProt B1MKV6); assay: DTNB; type: biochemical
[2] = tested on: NC[C@H]1O[C@H](O[C@H]2[C@H](O)[C@@H](O[C@H]3O[C@H](CO)[C@@H](O)[C@H](N)[C@H]3O)[C@H](N)C[C@@H]2N)[C@H](O)[C@@H](O)[C@@H]1O; assay: purified protein; conditions: co-substrate AcCoA fixed (printed 0.5 μM), pH 8.0, 25 °C
[3] = tested on: NC[C@@H]1O[C@H](O[C@H]2[C@@H](O)[C@H](O[C@@H]3[C@@H](O)[C@H](N)C[C@H](N)[C@H]3O[C@H]3O[C@H](CO)[C@@H](O)[C@H](O)[C@H]3N)O[C@@H]2CO)[C@H](N)[C@@H](O)[C@@H]1O; assay: purified protein; conditions: co-substrate AcCoA fixed (printed 0.5 μM), pH 8.0, 25 °C

Compound	IC50 [1] [µM]	Km [2] [µM]	kcat [2] [s⁻¹]	kcat/Km [2] [M⁻¹ s⁻¹]	Km [3] [µM]	kcat [3] [s⁻¹]	kcat/Km [3] [M⁻¹ s⁻¹]
[H]/N=C(\N/C(=N/[H])NCCCCCCNC(=N)NC(=N)Nc1ccc(Cl)cc1)Nc1ccc(Cl)cc1 [chlorhexidine]	4.4 ± 0.9						
Eis_Mab2 (Mycobacteroides abscessus ATCC 19977)		125 ± 27	0.124 ± 0.007	992 ± 377	144 ± 14	2.83 ± 0.07	19700 ± 1970
